Results on eight sequences are retold here after the supplement of paper PMC10065799, “High-throughput profiling of sequence recognition by tyrosine kinases and SH2 domains using bacterial peptide display” (eLife, 2023).

Series [1] has as its system AncSZ. As to the kind of experiment: phosphorylation enrichment, bacterial display (enrichment ratio); higher = better substrate or ligand; peptides without Tyr show the background.
Series [2] deals with EPHB1 (UniProt P54762). The series is described as above.
EPHB1, sequence (P54762 whole entry, looked up): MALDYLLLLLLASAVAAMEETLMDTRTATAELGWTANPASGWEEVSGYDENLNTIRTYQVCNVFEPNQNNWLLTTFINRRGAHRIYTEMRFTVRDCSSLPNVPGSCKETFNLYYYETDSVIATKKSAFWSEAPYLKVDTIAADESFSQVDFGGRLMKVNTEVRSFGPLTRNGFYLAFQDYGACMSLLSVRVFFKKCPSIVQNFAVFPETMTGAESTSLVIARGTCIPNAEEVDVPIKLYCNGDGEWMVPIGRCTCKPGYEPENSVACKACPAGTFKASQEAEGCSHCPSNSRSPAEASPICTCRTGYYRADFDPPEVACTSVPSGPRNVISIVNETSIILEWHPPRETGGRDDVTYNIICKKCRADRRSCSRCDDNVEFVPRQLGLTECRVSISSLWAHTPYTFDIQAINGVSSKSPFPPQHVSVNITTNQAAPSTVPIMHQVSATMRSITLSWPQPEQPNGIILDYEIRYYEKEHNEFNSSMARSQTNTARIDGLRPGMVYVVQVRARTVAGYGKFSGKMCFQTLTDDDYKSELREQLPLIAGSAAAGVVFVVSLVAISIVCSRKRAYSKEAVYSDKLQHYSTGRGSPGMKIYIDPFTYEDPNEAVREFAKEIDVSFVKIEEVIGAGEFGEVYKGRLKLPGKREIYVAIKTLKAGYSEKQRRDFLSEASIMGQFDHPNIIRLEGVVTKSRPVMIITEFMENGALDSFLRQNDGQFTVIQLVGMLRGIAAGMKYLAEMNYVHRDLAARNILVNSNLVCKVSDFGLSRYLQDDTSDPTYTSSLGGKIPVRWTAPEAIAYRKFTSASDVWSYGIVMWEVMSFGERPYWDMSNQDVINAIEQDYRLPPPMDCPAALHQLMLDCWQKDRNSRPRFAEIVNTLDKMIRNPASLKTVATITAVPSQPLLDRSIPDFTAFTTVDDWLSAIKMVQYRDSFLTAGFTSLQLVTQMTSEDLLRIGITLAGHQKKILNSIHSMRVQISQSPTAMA
The target in series [3] is EPHB2 (UniProt P29323). The series is described as above.
EPHB2, sequence (P29323 whole entry, looked up): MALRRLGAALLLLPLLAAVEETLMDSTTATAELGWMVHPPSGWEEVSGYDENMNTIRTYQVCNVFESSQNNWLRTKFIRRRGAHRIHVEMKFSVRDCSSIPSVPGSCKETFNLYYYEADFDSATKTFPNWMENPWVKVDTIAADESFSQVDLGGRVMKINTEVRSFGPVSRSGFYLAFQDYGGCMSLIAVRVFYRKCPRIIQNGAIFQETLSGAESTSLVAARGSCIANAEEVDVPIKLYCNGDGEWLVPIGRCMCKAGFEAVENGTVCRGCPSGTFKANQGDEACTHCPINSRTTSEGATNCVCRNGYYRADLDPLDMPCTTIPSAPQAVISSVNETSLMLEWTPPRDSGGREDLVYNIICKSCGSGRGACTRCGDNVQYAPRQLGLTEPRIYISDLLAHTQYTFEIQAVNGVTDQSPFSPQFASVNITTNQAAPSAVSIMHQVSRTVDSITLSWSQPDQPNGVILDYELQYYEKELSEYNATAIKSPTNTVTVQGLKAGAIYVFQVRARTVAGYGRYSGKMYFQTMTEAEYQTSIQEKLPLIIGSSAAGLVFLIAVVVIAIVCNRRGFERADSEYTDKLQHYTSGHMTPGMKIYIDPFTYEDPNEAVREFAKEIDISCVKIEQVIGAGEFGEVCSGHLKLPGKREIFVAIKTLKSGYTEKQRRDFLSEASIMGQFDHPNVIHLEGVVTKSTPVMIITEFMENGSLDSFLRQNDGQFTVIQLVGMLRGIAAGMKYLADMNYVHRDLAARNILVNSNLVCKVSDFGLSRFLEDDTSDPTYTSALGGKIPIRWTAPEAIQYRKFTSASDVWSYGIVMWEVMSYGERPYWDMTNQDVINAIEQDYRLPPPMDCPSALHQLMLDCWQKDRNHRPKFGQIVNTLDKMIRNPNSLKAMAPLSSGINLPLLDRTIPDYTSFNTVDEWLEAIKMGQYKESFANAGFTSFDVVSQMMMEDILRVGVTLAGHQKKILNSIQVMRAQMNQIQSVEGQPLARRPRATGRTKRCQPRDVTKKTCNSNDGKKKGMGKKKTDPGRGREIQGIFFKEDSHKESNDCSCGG
The target in series [4] is FGFR1 (UniProt P11362). Described as above.
FGFR1, sequence (P11362 whole entry, looked up): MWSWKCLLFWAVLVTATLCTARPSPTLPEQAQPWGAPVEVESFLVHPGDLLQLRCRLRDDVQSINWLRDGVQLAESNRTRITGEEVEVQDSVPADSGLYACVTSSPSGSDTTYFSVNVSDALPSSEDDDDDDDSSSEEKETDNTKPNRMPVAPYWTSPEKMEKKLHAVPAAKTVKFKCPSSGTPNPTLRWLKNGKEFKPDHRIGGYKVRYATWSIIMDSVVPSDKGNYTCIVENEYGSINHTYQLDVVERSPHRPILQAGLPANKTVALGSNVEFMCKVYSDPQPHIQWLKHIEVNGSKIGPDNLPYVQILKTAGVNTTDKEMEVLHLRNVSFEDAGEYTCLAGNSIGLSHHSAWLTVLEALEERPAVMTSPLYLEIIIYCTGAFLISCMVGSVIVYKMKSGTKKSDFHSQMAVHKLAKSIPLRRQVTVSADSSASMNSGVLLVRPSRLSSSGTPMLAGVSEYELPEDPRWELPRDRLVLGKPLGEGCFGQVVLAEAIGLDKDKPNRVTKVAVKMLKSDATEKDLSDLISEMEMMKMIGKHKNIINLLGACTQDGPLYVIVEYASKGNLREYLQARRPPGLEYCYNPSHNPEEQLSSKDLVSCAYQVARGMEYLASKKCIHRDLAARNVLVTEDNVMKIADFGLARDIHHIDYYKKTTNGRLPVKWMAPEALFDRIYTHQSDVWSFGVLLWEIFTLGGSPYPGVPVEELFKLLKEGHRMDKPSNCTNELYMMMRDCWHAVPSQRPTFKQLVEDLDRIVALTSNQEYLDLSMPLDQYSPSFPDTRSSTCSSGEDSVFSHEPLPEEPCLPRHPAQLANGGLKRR
Series [5] has as its target FGFR3 (UniProt P22607). The description is as above.
Series [6] deals with Fer (mouse). Described as above.
Series [7] concerns the target Fes (UniProt P07332). The description is as above.
The target of series [8] is Fyn (UniProt P06241). Described as above.
Series [9] concerns the target Hck (UniProt P08631). Described as above.
In series [10] the target is Jak2 (UniProt O60674). Described as above.
Jak2, sequence (O60674 whole entry, looked up): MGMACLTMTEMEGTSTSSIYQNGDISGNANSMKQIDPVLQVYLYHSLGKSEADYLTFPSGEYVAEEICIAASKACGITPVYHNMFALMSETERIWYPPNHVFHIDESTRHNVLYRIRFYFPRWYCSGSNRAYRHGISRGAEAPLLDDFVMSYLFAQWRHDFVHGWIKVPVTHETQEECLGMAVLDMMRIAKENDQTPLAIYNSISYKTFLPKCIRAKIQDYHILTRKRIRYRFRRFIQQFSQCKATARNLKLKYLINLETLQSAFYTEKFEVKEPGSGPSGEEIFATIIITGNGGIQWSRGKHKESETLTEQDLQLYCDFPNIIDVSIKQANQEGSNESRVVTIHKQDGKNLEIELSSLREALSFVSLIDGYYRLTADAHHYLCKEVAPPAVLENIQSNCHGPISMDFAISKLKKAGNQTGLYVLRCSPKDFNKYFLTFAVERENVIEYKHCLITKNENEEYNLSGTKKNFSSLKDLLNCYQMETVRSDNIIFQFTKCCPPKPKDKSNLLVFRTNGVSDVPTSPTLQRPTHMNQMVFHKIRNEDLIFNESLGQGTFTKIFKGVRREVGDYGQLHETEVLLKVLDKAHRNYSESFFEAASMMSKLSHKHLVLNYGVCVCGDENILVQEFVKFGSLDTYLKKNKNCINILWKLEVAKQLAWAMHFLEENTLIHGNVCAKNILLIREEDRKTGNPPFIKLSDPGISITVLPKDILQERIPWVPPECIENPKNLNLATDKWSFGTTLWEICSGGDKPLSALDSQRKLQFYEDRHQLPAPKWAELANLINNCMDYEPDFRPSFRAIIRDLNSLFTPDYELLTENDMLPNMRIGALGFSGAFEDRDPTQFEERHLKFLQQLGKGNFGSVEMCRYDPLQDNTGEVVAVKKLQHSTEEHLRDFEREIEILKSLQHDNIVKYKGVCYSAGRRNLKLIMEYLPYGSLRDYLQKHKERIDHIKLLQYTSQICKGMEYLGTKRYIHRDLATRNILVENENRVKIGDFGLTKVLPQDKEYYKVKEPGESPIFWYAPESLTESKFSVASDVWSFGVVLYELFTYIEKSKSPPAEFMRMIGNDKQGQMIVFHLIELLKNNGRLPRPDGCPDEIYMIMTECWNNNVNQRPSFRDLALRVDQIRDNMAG
The target of series [11] is MERTK (UniProt Q12866). Described as above.
The test system of series [12] is c-Abl (mouse). Described as above.
Series [13] deals with c-Src. Described as above.
The target in series [14] is Grb2 SH2 (UniProt P62993). As to the kind of experiment: SH2 binding enrichment of the phosphorylated peptide, bacterial display (enrichment ratio); higher = better substrate or ligand; peptides without Tyr show the background.
Grb2 SH2, sequence (P62993 whole entry, looked up): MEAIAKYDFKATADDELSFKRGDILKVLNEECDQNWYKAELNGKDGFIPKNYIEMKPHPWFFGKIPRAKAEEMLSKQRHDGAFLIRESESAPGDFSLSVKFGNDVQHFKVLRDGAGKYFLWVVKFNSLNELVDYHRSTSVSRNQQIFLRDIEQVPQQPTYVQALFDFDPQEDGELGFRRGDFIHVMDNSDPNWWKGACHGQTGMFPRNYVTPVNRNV
The target of series [15] is SHP2-C SH2. Described as above.
Series [16] concerns the target c-Src SH2. The series is described as above.
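Throughout, for SH2 binding enrichment of the phosphorylated peptide, bacterial display: peptide library displayed on the E. coli surface as eCPX fusions, selected cells deep-sequenced, score is each peptide's frequency after selection divided by its frequency in the input.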
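Throughout, for phosphorylation enrichment, bacterial display: 11-residue human phosphosite peptides and single-mutation variants displayed on the E. coli surface, counted by deep sequencing, each peptide's frequency after selection divided by its frequency in the unselected input library; frequency after pTyr selection over input frequency; kinase dosed for 20-30% of maximal phosphorylation in three min.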

FGFR3, sequence (P22607 whole entry, looked up): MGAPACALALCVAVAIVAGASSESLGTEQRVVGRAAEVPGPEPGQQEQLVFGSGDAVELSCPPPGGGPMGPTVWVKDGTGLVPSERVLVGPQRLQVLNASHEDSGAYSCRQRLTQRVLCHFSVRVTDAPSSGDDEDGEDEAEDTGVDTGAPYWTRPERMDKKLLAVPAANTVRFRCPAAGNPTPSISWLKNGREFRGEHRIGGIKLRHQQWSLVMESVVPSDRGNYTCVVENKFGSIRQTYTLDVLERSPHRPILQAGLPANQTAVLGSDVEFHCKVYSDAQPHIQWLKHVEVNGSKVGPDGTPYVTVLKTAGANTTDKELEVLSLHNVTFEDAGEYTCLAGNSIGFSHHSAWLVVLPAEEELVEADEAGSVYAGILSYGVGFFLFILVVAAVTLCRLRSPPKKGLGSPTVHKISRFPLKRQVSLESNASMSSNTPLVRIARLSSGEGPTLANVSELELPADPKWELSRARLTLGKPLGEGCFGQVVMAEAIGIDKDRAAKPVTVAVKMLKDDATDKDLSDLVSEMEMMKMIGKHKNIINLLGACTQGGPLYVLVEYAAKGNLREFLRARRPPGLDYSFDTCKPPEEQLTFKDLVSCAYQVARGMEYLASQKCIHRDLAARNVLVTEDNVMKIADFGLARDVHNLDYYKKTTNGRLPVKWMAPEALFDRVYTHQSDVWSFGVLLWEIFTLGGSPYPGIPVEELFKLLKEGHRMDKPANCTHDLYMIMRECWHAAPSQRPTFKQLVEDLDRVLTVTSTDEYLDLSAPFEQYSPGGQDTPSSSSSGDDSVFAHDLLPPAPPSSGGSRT

For the sequence NGVSYYINLCQ [IGF2R_Y2025], the phosphorylation enrichment in [1] was found to be 1.19; in series [2], 0.787; in [3], 0.548; in series [4], 0.525; in series [5] it was 1.04; in series [6], 0.548. Moreover, the phosphorylation enrichment in [7] was 1.38; in series [8], 0.449; in [9] it was 0.581; in series [10], 1.38; in series [11], 0.417; in series [12], 0.916. In series [13], the phosphorylation enrichment amounted to 0.374. Moreover, the SH2 binding enrichment in series [14] stood at 0.717; in series [15], 0.488; in series [16], 0.466.

Turning to TIAIRYSHSRR [ACOXL_Y260], the phosphorylation enrichment in series [1] is 0.746; in series [2] it was 0.363; in series [3], 0.622; in series [4], 0.536; in series [5] it was 0.599; in series [6], 0.632. Also, the phosphorylation enrichment came to 0.918 in series [7]; 0.644 in series [8]; 0.576 in [9]; 0.785 in [10]; 0.648 in series [11]; 0.655 in [12]. The phosphorylation enrichment in series [13] is 0.691. Besides, the SH2 binding enrichment in [14] amounted to 0.608; in [15], 0.44; in [16] it was 0.495.

Consider ERIELYELDKK [PMM2_Y145_F144L], for which the phosphorylation enrichment in series [1] is 1.18; in series [2], 0.664; in series [3], 0.589; in series [4] it was 0.481; in series [5], 0.673; in [6], 0.506. The phosphorylation enrichment in series [7] turned out to be 1.1; in series [8], 0.586; in [9], 0.574; in series [10], 0.887; in series [11], 0.568; in series [12] it was 0.641. For the same sequence, the phosphorylation enrichment in series [13] came out at 0.615. Moreover, the SH2 binding enrichment was 0.803 in series [14], 0.635 in series [15] and 0.487 in series [16].

EAEPYYCSLRD [NPHS1_Y1139_R1140C]: the phosphorylation enrichment turned out to be 1.78 in series [1]; 1.17 in series [2]; 1.21 in [3]; 1.34 in [4]; 1.31 in [5]; 1.85 in series [6]. Further, the phosphorylation enrichment stood at 1.43 in [7]; 3.37 in [8]; 2.94 in [9]; 1.33 in series [10]; 2.28 in series [11]; 1.62 in series [12]. Also, in [13], the phosphorylation enrichment was 4.11. Moreover, the values for the SH2 binding enrichment in series [14], in series [15] and in series [16] were 0.931, 0.908 and 1.91, respectively.

As to LDYNEYFRNLN [HPRT1_Y198_D201N], the phosphorylation enrichment in series [1] is 2.08; in series [2], 0.559; in [3], 0.751; in series [4] it was 0.596; in [5], 0.844; in series [6], 0.48. Also, the phosphorylation enrichment was determined as 1.14 in series [7]; 0.49 in series [8]; 0.69 in series [9]; 1.79 in series [10]; 0.382 in series [11]; 0.849 in series [12]. The phosphorylation enrichment in series [13] turned out to be 0.657. The SH2 binding enrichment in series [14] worked out at 0.81; in series [15] it was 0.967; in series [16] it was 0.507.

MHDKEYYSVHN [MET_Y1234_Y1230H]: the phosphorylation enrichment in [1] is 0.78; in series [2], 0.53; in series [3] it was 0.497; in series [4], 3.36; in [5], 2.08; in [6], 0.411. Also, the phosphorylation enrichment was found to be 0.748 in series [7]; 0.488 in series [8]; 0.459 in [9]; 0.807 in series [10]; 0.496 in series [11]; 0.479 in series [12]. In addition, the phosphorylation enrichment in series [13] was 0.61. Besides, the SH2 binding enrichment in [14] was found to be 0.827; in series [15] it was 0.423; in series [16], 0.513.

Consider DPEGAYTTRGG [EPHA3_Y779_A777G], for which the phosphorylation enrichment came out at 0.896 in series [1]; 0.497 in series [2]; 0.501 in series [3]; 0.369 in series [4]; 0.534 in series [5]; 0.515 in series [6]. For the same sequence, the phosphorylation enrichment came to 0.798 in series [7]; 0.394 in series [8]; 0.483 in [9]; 0.774 in [10]; 0.412 in [11]; 0.789 in [12]. Moreover, the phosphorylation enrichment in [13] stood at 0.536. Moreover, the SH2 binding enrichment in series [14] is 0.979; in series [15] it was 0.911; in series [16], 0.524.

For FIAVGYVDDSQ [HLA-A_Y51_T55S], the phosphorylation enrichment turned out to be 0.783 in series [1]; 0.469 in series [2]; 0.491 in [3]; 0.391 in [4]; 0.629 in series [5]; 0.444 in series [6]. The phosphorylation enrichment in series [7] is 1.08; in [8], 0.333; in series [9], 0.445; in series [10], 0.839; in [11], 0.3; in series [12], 0.617. For the same sequence, the phosphorylation enrichment in series [13] turned out to be 0.394. For the same sequence, the SH2 binding enrichment stood at 0.91 in series [14], 0.959 in series [15] and 0.704 in series [16].
